Common to all, as to test: Crosslinking/co-immunoprecipitation/mass spectrometry (TMT quantitative proteomics) to identify irisin receptors
Type in all cases: binding

Experiment [1] has as its target T1, MLO-Y4 cell surface proteins (Mus musculus, UniProt P16675).
T1 construct: endogenous in cells; host or cells: MLO-Y4
T1 sequence (P16675 24-474): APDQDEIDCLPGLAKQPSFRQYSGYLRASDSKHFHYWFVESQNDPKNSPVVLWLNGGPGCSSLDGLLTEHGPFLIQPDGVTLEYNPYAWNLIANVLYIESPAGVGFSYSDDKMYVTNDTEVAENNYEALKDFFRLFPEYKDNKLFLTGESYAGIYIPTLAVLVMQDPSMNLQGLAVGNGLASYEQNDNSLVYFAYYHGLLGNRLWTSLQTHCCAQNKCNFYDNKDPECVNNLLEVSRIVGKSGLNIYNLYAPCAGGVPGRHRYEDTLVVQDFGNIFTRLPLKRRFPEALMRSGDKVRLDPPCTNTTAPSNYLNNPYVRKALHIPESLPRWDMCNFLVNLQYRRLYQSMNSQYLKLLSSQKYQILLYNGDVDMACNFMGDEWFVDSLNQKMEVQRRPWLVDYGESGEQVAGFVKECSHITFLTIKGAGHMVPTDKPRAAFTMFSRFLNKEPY
As to conditions: co-precipitated protein Ctsa (PPGB_MOUSE). Summed up:
(§1)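 Relative protein abundance came from 6-plex TMT MS3 quantitation on an Orbitrap Fusion Lumos, after in-gel trypsin digestion of Coomassie-stained SDS-PAGE lanes. Input was a Ni-NTA pulldown (250 mM imidazole elution) of lysates from murine MLO-Y4 cells. These cells were treated on ice with His-tagged irisin or adipsin (10 nM, 20 min) in serum-free medium, then crosslinked with 1.5 mM DTSSP for 30 min.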

Experiment [2] deals with T2, MLO-Y4 cell surface proteins (Mus musculus, UniProt P61161).
T2 construct: endogenous in cells; host or cells: MLO-Y4
As to conditions: co-precipitated protein Actr2 (ARP2_MOUSE). The gist of the method:
as §1

Experiment [3] addresses T3, MLO-Y4 cell surface proteins (Mus musculus, UniProt P62960).
T3 construct: endogenous in cells; host or cells: MLO-Y4
To be noted: co-precipitated protein Ybx1 (YBOX1_MOUSE). Summed up:
as §1

Experiment [4] addresses T4, MLO-Y4 cell surface proteins (Mus musculus, UniProt Q8JZN5).
T4 construct: endogenous in cells; host or cells: MLO-Y4
T4 sequence (Q8JZN5 42-625): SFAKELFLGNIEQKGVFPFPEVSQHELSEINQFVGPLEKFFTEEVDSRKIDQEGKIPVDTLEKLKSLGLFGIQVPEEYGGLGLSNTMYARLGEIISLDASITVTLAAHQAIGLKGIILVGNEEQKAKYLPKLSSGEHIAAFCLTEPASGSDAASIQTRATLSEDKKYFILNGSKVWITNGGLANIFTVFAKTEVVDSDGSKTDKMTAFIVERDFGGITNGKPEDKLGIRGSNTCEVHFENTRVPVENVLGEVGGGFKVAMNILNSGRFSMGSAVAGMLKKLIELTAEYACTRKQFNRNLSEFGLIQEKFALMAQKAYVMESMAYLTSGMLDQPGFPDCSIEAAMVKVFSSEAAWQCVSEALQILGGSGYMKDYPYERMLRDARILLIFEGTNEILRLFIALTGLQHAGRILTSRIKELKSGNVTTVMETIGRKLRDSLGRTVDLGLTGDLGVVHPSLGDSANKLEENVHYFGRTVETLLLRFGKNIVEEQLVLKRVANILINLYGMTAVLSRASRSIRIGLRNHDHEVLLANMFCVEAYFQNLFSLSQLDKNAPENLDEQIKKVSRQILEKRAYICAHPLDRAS
As to conditions: co-precipitated protein Acad9 (ACAD9_MOUSE). The gist of the method: as §1

T3 sequence (P62960 whole entry): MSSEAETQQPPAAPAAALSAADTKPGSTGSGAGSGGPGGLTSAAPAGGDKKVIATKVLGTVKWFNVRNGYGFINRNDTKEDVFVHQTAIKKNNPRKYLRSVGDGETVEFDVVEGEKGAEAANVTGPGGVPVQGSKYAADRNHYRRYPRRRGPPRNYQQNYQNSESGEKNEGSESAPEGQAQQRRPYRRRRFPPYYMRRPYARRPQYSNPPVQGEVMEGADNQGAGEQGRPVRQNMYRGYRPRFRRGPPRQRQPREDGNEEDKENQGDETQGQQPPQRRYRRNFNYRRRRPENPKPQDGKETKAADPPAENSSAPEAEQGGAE

Consider adipsin, for which the TMT signal-to-noise ratio in experiment [1] was 357.95; in experiment [2], 153.626; in experiment [3] it was 219.172; in experiment [4], 127.125.

These data come from US20210063414A1, “METHODS FOR PREVENTING AND/OR TREATING BONE LOSS CONDITIONS BY MODULATING IRISIN” (Dana-Farber Cancer Institute, Inc., priority 2018, published 2021).
